Measured values from the domain aggregation screens of Martell et al. (2025).

Experiment: soluble fraction after stress (log2 fold change); higher = more stays soluble; pooled small domains, quantitative proteomics
Conditions: stress: 75 degC
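Note: 20 min heating vs room temperature control held 20 min.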

HMIVIMAKESSPAELEGVKNRIESHPGLRPQVFDGVERIVVGVLGSIPPDLKDEIELLPGVIEVVPISK
soluble fraction (log2): -0.177

HMIVVLKHGVTEQQMRNLIAWFKDQGVDVHVSRGIYQTVLGLVGDTSDIDVDLLRMLDIVDAVKRIT
soluble fraction (log2): -2.1

HMIVVMAADSSREDLDLVQGRIEARGLRAQISQGVERIVIGVLGSLPPDLKDEMELLPGVREVLVIS
soluble fraction (log2): -1.57

HMIYGNGVTDLKDLANGATIIIPADDSNETRALFLLQQEGLIKLPDDADAAKGVSTLDIVDGGGWVTSM
soluble fraction (log2): 0.0362

HMIYKLIADRLKNRINSDEFEVGDALPSEKALAGELEVSVMTIRKALTLLESEKLIVKRHGSGSYVARKSN
soluble fraction (log2): -1.77

HMIYRTTSVPIDNISTQKFNLQEGWIEMNKNEVEDFIRQKNLELVVTDSNVMLDKFALNGDPNKFKVFKY
soluble fraction (log2): 0.0778

HMKADTSPEAQKKIIAAFEPYSVNKDQIEKLIQRRIDSITPAQVIRLRKILASLKDGMSSPEDWFE
soluble fraction (log2): -0.195

HMKAERLLALLTILLSGKRVSARWLSEELEVSERTVYRDVEALSEAGFPVYATTGRDGGFSLIDGF
soluble fraction (log2): -2.01

HMKAKPTLLTPYEERLKGWLETDSRRPKRDRRTGLALFAKLQQEGFTGSYTRVTEYIRRWRDSGG
soluble fraction (log2): -2.87

HMKALPSAEDVALARESGRVLSTVLQTRAETQQIDFHDDKGAVRSVTLPTTALRLLLDVLTEIGQGNAV
soluble fraction (log2): -0.106

HMKALRNQDVVVGKPLAMAVYDQHGVLLLGRGHVVISESQRQQLLERGFSIDAEQLGRLRAAIEATQRV
soluble fraction (log2): -1.17

HMKALYHQLVDLLKKRMESGMIPHDKLPSERELTAQYGVSRTTVRLALQELENTGYIYRRHGKGTFVSDI
soluble fraction (log2): -2.85

HMKANIGDQVFTQLKDQIINGEWRPGDRIPSEAQLIQLFGVSRGTVRQAVQKLAGEGLIVTRHGEGSFVQG
soluble fraction (log2): -0.0329

HMKAQLQHIIGSNIKLARNTQGYTQEGLAERAEISVEHLKQVERGKKMLSVESLVNVANALQVSVDSLV
soluble fraction (log2): 0.0141

HMKAQVKSVLDDIPGIGQTRRKALMRYFKSLEKIREASVEELKEADAMNERAAQSVYAFFHK
soluble fraction (log2): -0.775

HMKAQVKSVLDEIPGVGPTRRKALMKHFTSIEEIKQAEFETLLEAEGMNRAAAQSVYDFFHN
soluble fraction (log2): -0.232

HMKDESQLVGAEGKAVTPLRPTGVALIGEKRLDVLTEGEFIPRNSDIIVSRVEGNKIIVKLKN
soluble fraction (log2): 0.00394

HMKDHLRFEILSFAGDLRNGVVKTRQEFETIFAFYDKYEEIITALKVHNGYVDSEFDFIKEKFKELKSK
soluble fraction (log2): -2.78

HMKDLQAISERMEEIISFAKANDNEISLFIVQDIIKNKKTGIDEDLLNMALYQIKEQGIKVLPA
soluble fraction (log2): -0.176

HMKDSIQIPNVVGMTIKDAQSQYGKSFSIIEQNRTESTKPAGTILEQTPAGGDTVSKRDNIIIRVVVSLG
soluble fraction (log2): -1.45

HMKDSKSALQEYALERKMGLPVYEVVDRSGPDHAPQFVIAVSLGEWRLEAKGASKRQAEQQAASLMLEEI
soluble fraction (log2): -0.174

HMKDYTIDDIINSKVEHPLGGYQSRFKVGEYEVSVVGGRQTNHGDFIHTFELAIFDKNNNFLRNLTPVTID
soluble fraction (log2): 0.0559

HMKEATTSPLDGIPGIGSKRKKALLSHFGSARSVARADIPDLMRVDGISRQVAETIYGWFHN
soluble fraction (log2): -0.417

HMKEDFPLLEQLRYTGEGADVTGTAEKMESIQALRSAADSGGFRATLGDIQQIPGGGLRFTLSLRGSR
soluble fraction (log2): -0.0408

HMKEDNPIVLINLQAKEGEWVFKGTGLPYVGKYHQHKNGEYMIGIGVLNLNHELKPDEIIIPNPNK
soluble fraction (log2): -0.362

HMKEEDYEVFMRLINVRGIGPKSALNILGVISGQEMIQAIENDDIKRLKSLPGIGAKTAGQIVLDLKGKFV
soluble fraction (log2): -0.746

HMKEFIPPVLDDVLKFFSGSLLPDWENQGRLFFSHYNSQGWRKGTGVQVTDWDSLANKWILDEKIKRDARS
soluble fraction (log2): -0.489

HMKEGTIPPVVNRTLSDAEFVLKSYGYELGRVSEQHSDMPKDIVIKQSPEAGTVADPGTRVDVVVSIGKA
soluble fraction (log2): 0.485

HMKEHDTLALRLTAILRKLNDGEKLVPRELAEEFNVGIRTIQRDLTERLSFLDLEKTNGAYSLPTRNL
soluble fraction (log2): -0.843

HMKEIIFRGIGEFILDYKSLVIEFLNKNNYANLSMDAPVDEVNKAVANNMLNEDFVTELLLFQRRVE
soluble fraction (log2): -4.14

HMKEILLITGKGLHSGQDDVYKSAQLSKLRYSVPEFIKSNLEISQLILSVETPLQKDGGDGALLIK
soluble fraction (log2): -0.0322

HMKEILVGVEPLSKKQIIIKKGIKGRSDYIIFEKKNYGLPENLKPEEVSIEIALKIIDEKKKRKA
soluble fraction (log2): -1.48

HMKEIPTKKGDMLEIYEANGKYILKYPTFNITMPEVVKEIPKEAVDSYLAGKHDGEELINYANFGFWKS
soluble fraction (log2): -0.0757

HMKEKDAYTSEILDTLKNAKLLVVEGTVYPLLTRLKNDGLLNYRWEESTSGPPRKYYGLTDEG
soluble fraction (log2): -0.704

HMKEKIIKEPYDLFTTDKIGQALEVQALLARQGIKVQRRVDGTKSTLFLENYTQSEKDQALLAVVRSGIV
soluble fraction (log2): -0.719

HMKEKPLWAIRITELREEHYFTQTDVSKALGIAQTTYAGYETGRHEPDFETMIKIADIYKVSLDYLIGR
soluble fraction (log2): -2.03

HMKELFETLPDVLDAKLLASALSISKAGAYQLLNRPDFPTLQVGGWKLVTKQKLALWMEQHTN
soluble fraction (log2): -3.39

HMKELFGQRLREQRLKQNLTLEQLAEKANLSPNYVGMVERGLKEPGLATIVKLLNGLNVSADTLL
soluble fraction (log2): -0.446

HMKELLTKQQREEILETVKTKTPKDFGYTAEHWTTGFLGKWIEEHYEVEYKSKTSLYLVFKKASFTYHKPG
soluble fraction (log2): 0.24

HMKELTARQIEILDFITNYEWRHGYWPSIRNIQVQFSYKSTNAVMGHLRALERKGAIERIPGQARTFRIH
soluble fraction (log2): -3.53

HMKEPFETMPDVMDAKQIAEALQISKAGAYNLLNSPDFPTLRIGGRKLVMKNELVEWLKSHTNRK
soluble fraction (log2): 0.428

HMKEPPTLEEIKNYFASKLSTELESEKFFNYFESNGWLVGGKTPMKNWQSAANNWLINMSKFN
soluble fraction (log2): -0.853

HMKEPQLGPVRKWSDQTGNFGIEAQFVKREGDNILLKRADQRTISIPLEKLSDADQEHLKQEEQKQAME
soluble fraction (log2): -0.333

HMKEQLEAYVNRLFADAALTIRNAEVRQEILQHALDRYDDLIASGKTEQEAYDETVSGIGDVSGLYEHK
soluble fraction (log2): -0.584

HMKETKVIHVHLIFKKTSRFFGSISAIYSEFTAEEIGITEETLRHKGLSDGVSFATKKAIIQQGVLIR
soluble fraction (log2): -2.78

HMKEVDSESAFAERGISEVWIPALQKMGILTLEALDAANPNKVFNDLGGMRKKLKIDAAMPTKDEVTAWIQ
soluble fraction (log2): 0.0576

HMKEVKPSDFFLSKLDEDHNLIEKFNALSSFKQKEFIEYIDSAKQEKTKHDRFEKIKPILLSNIGLNDKYR
soluble fraction (log2): -0.0777

HMKEVVVPDYFLKQLQKNKKAFITFNNFSPSHKREYVEWITEAKTEETKNRRMKSAIEWMSEGKSRNWKYI
soluble fraction (log2): -0.589

HMKFGETLIDLRKRNGLTQEELAAKLYVTRQAVSRWERGEVTPGIDMLKLIANVLNEPVAHLLDW
soluble fraction (log2): -2.14

HMKFNRPMSEILQEWENKLGTTSDAELAGLIGVVTMTINRWRKNETKPDLSALNRYDRIVNLVVNNIKQL
soluble fraction (log2): -2.27

HMKFPPELVEFIEGLSLLKPPLNYATVHRRAEKLAIKKGWASPSYSTVRNIIRKLSPALTTLAHEG
soluble fraction (log2): -2.57

HMKGAADPAIKQKVLDYLDTVEKAKSKEIAKAISEEKSAVDLAVKELAFEDKVEYLYITTTFVALKGKVA
soluble fraction (log2): -1.51

HMKGALQIAIEEGFNWNLDKKYWNIVQSTVIAKRLGLKTTSGLKEAIEGMGGEYKRTKKARGYLVPTFKD
soluble fraction (log2): -3.98

HMKGDYWIIDLDKNYQYAIISEPDRQYLWILSRSPNMDTQTLETLKEKIRSKGFDLTYLKQTL
soluble fraction (log2): -1.53

HMKGHQASTTWISERVKDIIKEDPTLGARKLQKRLEIHYNIELSYFKVWSGKNLQWMIFMVL
soluble fraction (log2): 0.0846

HMKGSYTVKSGDNLWSIARKFYGGSGSTWTKIYSANKSTIESTARRYGRSSSDNGHWIYPGTVLVIP
soluble fraction (log2): -0.924

HMKGVSFEEIERAVRTAQNPEADETAQQHAGMVFSRMEGNELFDKLVQSSSTIGKKITGLMDYYL
soluble fraction (log2): -0.239

HMKGYIGESKARNIALKKAPGASITKFEFDKDDGIAVYEVELRKGIYEYELKINAVTGAIIEFEKDIE
soluble fraction (log2): -2.2

HMKHKYWEIKERIKKDILNEVYKKGESIPSERDLAGIYDVTRVTVQKAMAMLVQEGYIERIHGKGMFVLKN
soluble fraction (log2): -2.32

HMKHRFVVGEVLSIGKLQHEITLKTAQGERKFQLDKQDLPASIQDGAKVRAELNEAGRVIDVHPLK
soluble fraction (log2): -0.0848

HMKHYMKITDISLQTRDKNRVNVSVDGKYRFSLDVFQVGELGLKVGREYTDEELTALEDESQFG
soluble fraction (log2): -1.11

HMKIATIELVKEAVKSKLGKFTKRDIMELVPSVGKTTIENMLKQLIGEGYIERHGKGRATFYVK
soluble fraction (log2): -0.761

HMKIDANTFTSIEKQLFVLLSKTPTPMGSIFVALAKEDKEAVWEVIHFLEAENRLIMNEDGTIQL
soluble fraction (log2): -2.14

HMKIDEVSFAYIERTLFSMLGKLPTPVNKVIATIGEEKKETIWEVIRFLESENKLITNEDGTLQL
soluble fraction (log2): -2.46

HMKIDNIIIYITGGVKKEGVYELPDGSRISDAIEQAEGLKANADTSSINLAYKLEDGMKIKIPLQGEN
soluble fraction (log2): -0.181

HMKIDNPEYQKIMDMIPYFFQTRNYDEAIEALSYVIEQEPSFSEAYNKRATFYFMMGDFENSMKDIESTLA
soluble fraction (log2): -0.288

HMKIEEVIEKLKTDSIISRKEYEDIVRQINPNLSDRTIFWQLAKLQDMGVLQKIGQNSFHVRN
soluble fraction (log2): -0.183

HMKIERKGDESYLSFVERATSALSDGLIDYQQWGRAVVGEDLYSEENTRRIAKFFAQFIQNLEND
soluble fraction (log2): -2.62

HMKIKAKYTTDFGIRIYAPKPGKNYWRISYVDLDGKLRDTTATSEKTALDKSAEIEVLLRNN
soluble fraction (log2): -2.2

HMKILALETSAKAVSAAVSENGRILASGYQDTGLTHSRTLMPIVEHILKNTDLKLSDMDAIAVAVGPG
soluble fraction (log2): 0.144

HMKIMSLSERHQKILELLKVNGIVSVNSLSRQLNVSSVTIRKDLGLLEEKKLLYRSHGGAIQID
soluble fraction (log2): -3.35

HMKINYNEFLRRFLGEKEGDIIEMETGKRIGTHKGYWFHTIGQRKGLGLGGGPWFVIRKDIDENIIYVSHG
soluble fraction (log2): -1.3

HMKIPGIGDVYAILARVYSGPQFTWIEAGFPEDDTKAYSYLHTAIRKGSAIAILQAMRTSGALTPTIEKE
soluble fraction (log2): -0.0245

HMKIPPIMFVRAIMVAGRQSMAIMDIEGVGTGIIVRSGYSFSNGEGKVVRIGPDKVTVNWSGKHLDLAPG
soluble fraction (log2): -3.8

HMKIPQFAVIKQYLEQQIKTAQWAPGRQIPTEQSLADTFSVSRMTARRAVQQLADAGLLERTQGSGTFVAD
soluble fraction (log2): -0.162

HMKISDTITEKILTDNNFSMELAKKIGIQQGSLLSSIRRNRDSRILRLWEAVMFYKEQGYTEEEIFTDY
soluble fraction (log2): -2.61

HMKISELAKKVIASGRVTQWAKHPHIYFVNGMRKVAIELDVNGVFSISMRYYPYDPADRELVENLIRGD
soluble fraction (log2): -2.67
